In US20210032664, “ENGINEERED MEGANUCLEASES WITH RECOGNITION SEQUENCES FOUND IN THE HUMAN BETA-2 MICROGLOBULIN GENE” (Precision Biosciences, Inc., published 2021):
Where a chain is given by its changes, count along the chain named. Numbers in names are those of the source.

Legend:
Assay in all cases: cell_activity; human T cells, 1 ug mRNA, day 3
Settings in all cases: tags: N-terminal SV40 NLS
[1] = molecular target: T1, B2M 13-14x.283 (Artificial Sequence)
T1 chain: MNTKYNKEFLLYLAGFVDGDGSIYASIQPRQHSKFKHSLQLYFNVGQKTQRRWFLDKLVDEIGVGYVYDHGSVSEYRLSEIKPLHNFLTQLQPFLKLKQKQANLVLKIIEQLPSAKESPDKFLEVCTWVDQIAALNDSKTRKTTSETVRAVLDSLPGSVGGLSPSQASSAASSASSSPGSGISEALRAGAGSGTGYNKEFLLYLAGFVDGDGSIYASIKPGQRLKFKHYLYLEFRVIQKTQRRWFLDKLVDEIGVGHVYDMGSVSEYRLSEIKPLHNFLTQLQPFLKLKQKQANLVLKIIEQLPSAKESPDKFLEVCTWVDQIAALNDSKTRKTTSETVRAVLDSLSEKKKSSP
Description: (§1) Donor human T cells were stimulated with anti-CD3 and anti-CD28 antibodies for 3 days, then electroporated with mRNA encoding a given B2M 13-14 meganuclease (1 μg) using the Amaxa 4D-Nucleofector (Lonza) according to the manufacturer's instructions. To look for the loss of B2M surface expression, cells were stained with an antibody recognizing β-2 microglobulin (BD Biosciences) as well as an antibody recognizing CD3 (BioLegend), a marker of T cells.

[2] = molecular target: T2, B2M 13-14x.377 (Artificial Sequence)
T2 chain: T1 chain with H32A, S33A, S38T, S217V, G221N, R223A, Y229T, Y231S, I237S, M261F
Description: as §1

[3] = molecular target: T3, B2M 13-14x.551 (Artificial Sequence)
T3 chain: T1 chain with H32R, S217G, G221R, Y229Q, Y231L, I237S, M261A
Description: as §1

[4] = molecular target: T4, B2M 13-14x.281 (Artificial Sequence)
T4 chain: T1 chain with G221S, R223Q, Y229Q, Y231S, I237C, M261A
Description: as §1

[5] = molecular target: T5, B2M 13-14x.456 (Artificial Sequence)
T5 chain: T1 chain with H32A, S33A, S38T, S217V, G221Q, R223H, Y229Q, Y231F, I237S, M261S
Description: as §1

[6] = molecular target: T6, B2M 13-14x.317 (Artificial Sequence)
T6 chain: T1 chain with G221Y, R223T, Y231F, I237Y, M261T
Description: as §1

[7] = molecular target: T7, B2M 13-14x.362 (Artificial Sequence)
T7 chain: T1 chain with S217V, G221S, R223H, Y231T, I237S
Description: as §1

B1: B2M 13-14 recognition sequence (dsDNA)
DNA 1: CTATCTCTTGTACTACACTGAA
DNA 2: TTCAGTGTAGTACAAGAGATAG
B1 gave an activity [1] of 49.3 % B2M-negative, an activity [2] of 75.9 % B2M-negative and an activity [3] of 40.3 % B2M-negative. It also gave an activity [4] of 53.6 % B2M-negative, an activity [5] of 15.7 % B2M-negative and an activity [6] of 3.91 % B2M-negative. For the same binder, the activity [7] was 37.8 % B2M-negative.
